Data as given in patent publication US20250188157A1 (UNIVERSITY OF TOKYO, published 2025).

Key:
[1] = biological target: T1, E. coli wild-type SHMT, GST fusion protein (E. coli, UniProt P0A825 1-417); assay: ELISA, GST fusion protein coated at 2 ug/ml, dilution series of antibody
T1 construct: Overexpressed in E. coli as GST fusion protein, purified, coated at 2 ug/ml on the ELISA plate; not shown: GST tag
T1 sequence: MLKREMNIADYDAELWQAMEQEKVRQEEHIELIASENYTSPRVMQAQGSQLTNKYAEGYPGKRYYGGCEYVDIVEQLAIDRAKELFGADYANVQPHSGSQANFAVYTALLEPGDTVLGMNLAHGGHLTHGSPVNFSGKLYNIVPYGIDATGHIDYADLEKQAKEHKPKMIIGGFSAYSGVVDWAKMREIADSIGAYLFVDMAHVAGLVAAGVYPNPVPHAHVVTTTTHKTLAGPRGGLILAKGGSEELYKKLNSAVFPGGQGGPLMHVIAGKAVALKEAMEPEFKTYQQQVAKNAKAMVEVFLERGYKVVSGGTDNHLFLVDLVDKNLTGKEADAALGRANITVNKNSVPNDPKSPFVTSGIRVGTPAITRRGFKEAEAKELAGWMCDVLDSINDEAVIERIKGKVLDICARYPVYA

E. coli SHMT (25-45) = biological target: T2, E. coli SHMT (25-45) (E. coli); assay: X-ray crystal structure of the complex
T2 construct: Expressed as GST fusion, cleaved with HRV 3C protease and purified for crystallisation; also called E. coli SHMT antigen
T2 peptide: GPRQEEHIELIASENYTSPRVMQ

[2] = biological target: T3, C. difficile iPGM (486-509) (Clostridium difficile); assay: X-ray crystal structure of the complex
T3 construct: the blank is left out; also called C. difficile iPGM antigen
T3 peptide: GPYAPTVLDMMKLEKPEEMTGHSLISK

E. coli iPGM = biological target: T4, E. coli iPGM (E. coli, UniProt P37689 1-514, limits assumed); assay: Western blot
T4 sequence (looked up): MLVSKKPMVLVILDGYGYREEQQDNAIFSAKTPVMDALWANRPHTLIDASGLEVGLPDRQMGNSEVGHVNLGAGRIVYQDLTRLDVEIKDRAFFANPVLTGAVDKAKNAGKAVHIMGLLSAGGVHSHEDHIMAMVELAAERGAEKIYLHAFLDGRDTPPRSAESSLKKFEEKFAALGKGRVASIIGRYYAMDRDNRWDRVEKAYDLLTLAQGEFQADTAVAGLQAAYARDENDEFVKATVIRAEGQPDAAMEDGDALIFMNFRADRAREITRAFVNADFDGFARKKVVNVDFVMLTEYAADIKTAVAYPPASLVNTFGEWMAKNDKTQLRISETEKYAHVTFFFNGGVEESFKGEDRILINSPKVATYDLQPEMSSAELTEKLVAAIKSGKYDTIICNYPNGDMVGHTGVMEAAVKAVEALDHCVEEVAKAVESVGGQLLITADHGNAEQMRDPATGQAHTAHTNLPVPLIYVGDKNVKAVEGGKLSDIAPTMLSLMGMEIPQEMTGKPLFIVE

B1: RS_H007_L001 (antibody, V domains shown)
VH: EVQLQQSGSELVKSGASVKLSCTVSGFNFTNYYIHWVRQRTEQGLEWIGRIDPENNQTTYAPKFQGKATMTADTSSNTAYLQLTSLTSEDTAVYYCARSTVLDYWGHGTTLTVSS
VL: DVLMTQSPASLSVSLGDRATISCRASQSIVHTNGNTYLEWYLQKPGQSPKLLIYKVSNRFSGVPDRFSGSGSGTDFILKISRVEAEDLGVYYCFQGSHVPPTFGGGTKLEVK
B1: binds [1].

B2: RS_H000_L000GR Fab (Fab, V domains shown)
VH: EVQLQQSGSELVKSGASVKLSCTVSGFNFTDYYIHWVRQRTEQGLEWIGRIDPENDETTYAPKFQGKATMTADTSSNTAYLQLTSLTSEDTAVYYCARSTVLDYWGHGTTLTVSS
VL: DVLMTQTPLSLPVSLGDQASISCRASQSIVHTNGNTYLEWYLQKPGQSPKLLIYKVSNRFSGVPDRFSGSGSGTDFILKISRVEAEDLGVYYCFQGSHVPPTFGGGTKLEVK
notes: also called IgG W27 Fab
B2: binds (E. coli SHMT (25-45)); binds [2].

B3: W27G2 antibody (mouse W27G2 hybridoma-producing IgA antibody) (antibody, V domains shown)
VH: EVQLQQSGSELVKSGASVKLSCTVSGFNFTDYYIHWVRQRTEQGLEWIGRIDPENDETTYAPKFQGKATMTADTSSNTAYLQLTSLTSEDTAVYYCARSTVLDYWGHGTTLTVSS
VL: DVLMTQTPLSLPVSLGDQASISCRASQSIVHTNGNTYLEWYLQKPGQSPKLLIYKVSNRFSGVPDRFSGSGSGTDFILKISRVEAEDLGVYYCFQGSHVPPTFGGGTKLEVKR
notes: Hybridoma-producing IgA; Both names are treated as one molecule here; W27G2CHT is the hydroxyapatite crude preparation, W27G2GF the gel filtration multimer fraction; also called W27 antibody; W27G2CHT
B3: no binding (E. coli iPGM); binds [1].

B4: RS_H007_L002 (antibody, V domains shown)
VH: EVQLQQSGSELVKSGASVKLSCTVSGFNFTNYYIHWVRQRTEQGLEWIGRIDPENNQTTYAPKFQGKATMTADTSSNTAYLQLTSLTSEDTAVYYCARSTVLDYWGHGTTLTVSS
VL: DVLMTQSPASLSVSLGDRVTISCRASQSIVHTNGNTYLEWYLQKPGQSPKLLIYKVSNRFSGVPDRFSGSGSGTDFILKISRVEAEDLGVYYCFQGSHVPPTFGGGTKLEVK
B4: binds [1].

B5: RS_H007_L004 (antibody, V domains shown)
VH: EVQLQQSGSELVKSGASVKLSCTVSGFNFTNYYIHWVRQRTEQGLEWIGRIDPENNQTTYAPKFQGKATMTADTSSNTAYLQLTSLTSEDTAVYYCARSTVLDYWGHGTTLTVSS
VL: DVLMTQSPASMSVSLGDRATISCRSSQSIVHTNGNTYLEWYLQKPGQSPKLLIYKVSNRFSGVPDRFSGSGSGTDFILKISRVEAEDLGVYYCFQGSHVPPTFGGGTKLEVK
B5: binds [1].

B6: RS_H007_L005 (antibody, V domains shown)
VH: EVQLQQSGSELVKSGASVKLSCTVSGFNFTNYYIHWVRQRTEQGLEWIGRIDPENNQTTYAPKFQGKATMTADTSSNTAYLQLTSLTSEDTAVYYCARSTVLDYWGHGTTLTVSS
VL: DVLMTQSPASLSVSLGDRATISCRSSQSIVHTNGNTYLEWYLQKPGQSPKLLIYKVSNRFSGVPDRFSGSGSGTDFILKISRVEAEDLGVYYCFQGSHVPPTFGGGTKLEVK
B6: binds [1].

B7: RS_H000_L001 (antibody, V domains shown)
VH: EVQLQQSGSELVKSGASVKLSCTVSGFNFTDYYIHWVRQRTEQGLEWIGRIDPENDETTYAPKFQGKATMTADTSSNTAYLQLTSLTSEDTAVYYCARSTVLDYWGHGTTLTVSS
VL: DVLMTQSPASLSVSLGDRATISCRASQSIVHTNGNTYLEWYLQKPGQSPKLLIYKVSNRFSGVPDRFSGSGSGTDFILKISRVEAEDLGVYYCFQGSHVPPTFGGGTKLEVK
notes: recombinant multimeric IgA co-expressed with J chain (H:L:J = 2:2:1); mainly dimers by SDS-PAGE; also called rW27
B7: binds [1].

B8: RS_H000_L005 (antibody, V domains shown)
VH: EVQLQQSGSELVKSGASVKLSCTVSGFNFTDYYIHWVRQRTEQGLEWIGRIDPENDETTYAPKFQGKATMTADTSSNTAYLQLTSLTSEDTAVYYCARSTVLDYWGHGTTLTVSS
VL: DVLMTQSPASLSVSLGDRATISCRSSQSIVHTNGNTYLEWYLQKPGQSPKLLIYKVSNRFSGVPDRFSGSGSGTDFILKISRVEAEDLGVYYCFQGSHVPPTFGGGTKLEVK
B8: binds [1].
